In the supplement of paper PMC5998384:

Tests used:
HeLa Kyoto [1] = experiment: solubility in G1/S (NP-40 vs SDS abundance) (log2 ratio); higher = more soluble; conditions: cell cycle stage: G1/S
HeLa Kyoto [2] = experiment: melting temperature (median over replicates), in situ; higher = more thermally stable
HeLa Kyoto [3] = experiment: solubility change mitosis vs G1/S (difference of NP-40 vs SDS log2 ratios) (log2 ratio difference); higher = more soluble in mitosis
HeLa Kyoto [4] = experiment: thermal stability score vs G1/S (z-score of summed log2 fold changes over temperatures); higher = more thermally stable than in G1/S
[5] = cell cycle stage: early G1 (4.5 h after nocodazole release)
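Throughout, for melting temperature (median over replicates), in situ: HeLa Kyoto cells synchronized by double thymidine or nocodazole block, proteins quantified by TMT10plex mass spectrometry, three independent biological replicates.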
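Throughout, for solubility change mitosis vs G1/S (difference of NP-40 vs SDS log2 ratios): synchronized HeLa Kyoto cells (double thymidine block for G1/S, nocodazole release for mitosis), protein amounts in NP-40 versus SDS lysates quantified by mass spectrometry, three biological replicates.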
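Throughout, for solubility in G1/S (NP-40 vs SDS abundance): HeLa Kyoto cells arrested at G1/S by double thymidine block, proteins quantified by TMT10plex mass spectrometry in mild NP-40 versus SDS extracts, three biological replicates.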
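Throughout, for thermal stability score vs G1/S (z-score of summed log2 fold changes over temperatures): synchronized HeLa Kyoto cells, proteins quantified by TMT10plex mass spectrometry, three biological replicates, mitosis taken 0.5 h after nocodazole release, G1/S directly after double thymidine block.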

Sequence: MSKLKSSESVRVVVRCRPMNGKEKAASYDKVVDVDVKLGQVSVKNPKGTAHEMPKTFTFDAVYDWNAKQFELYDETFRPLVDSVLQGFNGTIFAYGQTGTGKTYTMEGIRGDPEKRGVIPNSFDHIFTHISRSQNQQYLVRASYLEIYQEEIRDLLSKDQTKRLELKERPDTGVYVKDLSSFVTKSVKEIEHVMNVGNQNRSVGATNMNEHSSRSHAIFVITIECSEVGLDGENHIRVGKLNLVDLAGSERQAKTGAQGERLKEATKINLSLSALGNVISALVDGKSTHIPYRDSKLTRLLQDSLGGNAKTVMVANVGPASYNVEETLTTLRYANRAKNIKNKPRVNEDPKDALLREFQEEIARLKAQLEKRSIGRRKRREKRREGGGSGGGGEEEEEEGEEGEEEGDDKDDYWREQQEKLEIEKRAIVEDHSLVAEEKMRLLKEKEKKMEDLRREKDAAEMLGAKIKAMESKLLVGGKNIVDHTNEQQKILEQKRQEIAEQKRREREIQQQMESRDEETLELKETYSSLQQEVDIKTKKLKKLFSKLQAVKAEIHDLQEEHIKERQELEQTQNELTRELKLKHLIIENFIPLEEKSKIMNRAFFDEEEDHWKLHPITRLENQQMMKRPVSAVGYKRPLSQHARMSMMIRPEARYRAENIVLLELDMPSRTTRDYEGPAIAPKVQAALDAALQDEDEIQVDASSFESTANKKSKARPKSGRKSGSSSSSSGTPASQLYPQSRGLVPK [KIF3B]
- solubility in G1/S (log2) (HeLa Kyoto [1]): 0.0133
- melting temperature (HeLa Kyoto [2]; cell cycle stage: G1/S): 50.3 °C
- melting temperature (HeLa Kyoto [2]; cell cycle stage: mitosis): 50.3 °C
- solubility change mitosis (log2) (HeLa Kyoto [3]): -0.0759
- thermal stability score (HeLa Kyoto [4]; [5]): 0.792
- thermal stability score (HeLa Kyoto [4]; cell cycle stage: mitosis): 0.328

Sequence: MSKPELKEDKMLEVHFVGDDDVLNHILDREGGAKLKKERAQLLVNPKKIIKKPEYDLEEDDQEVLKDQNYVEIMGRDVQESLKNGSATGGGNKVYSFQNRKHSEKMAKLASELAKTPQKSVSFSLKNDPEITINVPQSSKGHSASDKVQPKNNDKSEFLSTAPRSLRKRLIVPRSHSDSESEYSASNSEDDEGVAQEHEEDTNAVIFSQKIQAQNRVVSAPVGKETPSKRMKRDKTSDLVEEYFEAHSSSKVLTSDRTLQKLKRAKLDQQTLRNLLSKVSPSFSAELKQLNQQYEKLFHKWMLQLHLGFNIVLYGLGSKRDLLERFRTTMLQDSIHVVINGFFPGISVKSVLNSITEEVLDHMGTFRSILDQLDWIVNKFKEDSSLELFLLIHNLDSQMLRGEKSQQIIGQLSSLHNIYLIASIDHLNAPLMWDHAKQSLFNWLWYETTTYSPYTEETSYENSLLVKQSGSLPLSSLTHVLRSLTPNARGIFRLLIKYQLDNQDNPSYIGLSFQDFYQQCREAFLVNSDLTLRAQLTEFRDHKLIRTKKGTDGVEYLLIPVDNGTLTDFLEKEEEEA [ORC2]
- solubility in G1/S (log2) (HeLa Kyoto [1]): 0.117
- melting temperature (HeLa Kyoto [2]; cell cycle stage: G1/S): 48.1 °C
- melting temperature (HeLa Kyoto [2]; cell cycle stage: mitosis): 49.2 °C
- solubility change mitosis (log2) (HeLa Kyoto [3]): 0.06
- thermal stability score (HeLa Kyoto [4]; [5]): 1.23
- thermal stability score (HeLa Kyoto [4]; cell cycle stage: mitosis): 1.67

Sequence: MSLAFKIFFPQTLRALSRKELCLFRKHHWRDVRQFSQWSETDLLHGHPLFLRRKPVLSFQGSHLRSRATYLVFLPGLHVGLCSGPCEMAEQRFCVDYAKRGTAGCKKCKEKIVKGVCRIGKVVPNPFSESGGDMKEWYHIKCMFEKLERARATTKKIEDLTELEGWEELEDNEKEQITQHIADLSSKAAGTPKKKAVVQAKLTTTGQVTSPVKGASFVTSTNPRKFSGFSAKPNNSGEAPSSPTPKRSLSSSKCDPRHKDCLLREFRKLCAMVADNPSYNTKTQIIQDFLRKGSAGDGFHGDVYLTVKLLLPGVIKTVYNLNDKQIVKLFSRIFNCNPDDMARDLEQGDVSETIRVFFEQSKSFPPAAKSLLTIQEVDEFLLRLSKLTKEDEQQQALQDIASRCTANDLKCIIRLIKHDLKMNSGAKHVLDALDPNAYEAFKASRNLQDVVERVLHNAQEVEKEPGQRRALSVQASLMTPVQPMLAEACKSVEYAMKKCPNGMFSEIKYDGERVQVHKNGDHFSYFSRSLKPVLPHKVAHFKDYIPQAFPGGHSMILDSEVLLIDNKTGKPLPFGTLGVHKKAAFQDANVCLFVFDCIYFNDVSLMDRPLCERRKFLHDNMVEIPNRIMFSEMKRVTKALDLADMITRVIQEGLEGLVLKDVKGTYEPGKRHWLKVKKDYLNEGAMADTADLVVLGAFYGQGSKGGMMSIFLMGCYDPGSQKWCTVTKCAGGHDDATLARLQNELDMVKISKDPSKIPSWLKVNKIYYPDFIVPDPKKAAVWEITGAEFSKSEAHTADGISIRFPRCTRIRDDKDWKSATNLPQLKELYQLSKEKADFTVVAGDEGSSTTGGSSEENKGPSGSAVSRKAPSKPSASTKKAEGKLSNSNSKDGNMQTAKPSAMKVGEKLATKSSPVKVGEKRKAADETLCQTKVLLDIFTGVRLYLPPSTPDFSRLRRYFVAFDGDLVQEFDMTSATHVLGSRDKNPAAQQVSPEWIWACIRKRRLVAPC [LIG3]
- solubility in G1/S (log2) (HeLa Kyoto [1]): -0.13
- melting temperature (HeLa Kyoto [2]; cell cycle stage: G1/S): 46.3 °C
- melting temperature (HeLa Kyoto [2]; cell cycle stage: mitosis): 48.8 °C
- solubility change mitosis (log2) (HeLa Kyoto [3]): 0.0705
- thermal stability score (HeLa Kyoto [4]; [5]): 0.91
- thermal stability score (HeLa Kyoto [4]; cell cycle stage: mitosis): 2.49

Sequence: MSLKNEPRVNTSALQKIAADMSNIIENLDTRELHFEGEEVDYDVSPSDPKIQEVYIPFSAIYNTQGFKEPNIQTYLSGCPIKAQVLEVERFTSTTRVPSINLYTIELTHGEFKWQVKRKFKHFQEFHRELLKYKAFIRIPIPTRRHTFRRQNVREEPREMPSLPRSSENMIREEQFLGRRKQLEDYLTKILKMPMYRNYHATTEFLDISQLSFIHDLGPKGIEGMIMKRSGGHRIPGLNCCGQGRACYRWSKRWLIVKDSFLLYMKPDSGAIAFVLLVDKEFKIKVGKKETETKYGIRIDNLSRTLILKCNSYRHARWWGGAIEEFIQKHGTNFLKDHRFGSYAAIQENALAKWYVNAKGYFEDVANAMEEANEEIFITDWWLSPEIFLKRPVVEGNRWRLDCILKRKAQQGVRIFIMLYKEVELALGINSEYTKRTLMRLHPNIKVMRHPDHVSSTVYLWAHHEKLVIIDQSVAFVGGIDLAYGRWDDNEHRLTDVGSVKRVTSGPSLGSLPPAAMESMESLRLKDKNEPVQNLPIQKSIDDVDSKLKGIGKPRKFSKFSLYKQLHRHHLHDADSISSIDSTSSYFNHYRSHHNLIHGLKPHFKLFHPSSESEQGLTRPHADTGSIRSLQTGVGELHGETRFWHGKDYCNFVFKDWVQLDKPFADFIDRYSTPRMPWHDIASAVHGKAARDVARHFIQRWNFTKIMKSKYRSLSYPFLLPKSQTTAHELRYQVPGSVHANVQLLRSAADWSAGIKYHEESIHAAYVHVIENSRHYIYIENQFFISCADDKVVFNKIGDAIAQRILKAHRENQKYRVYVVIPLLPGFEGDISTGGGNALQAIMHFNYRTMCRGENSILGQLKAELGNQWINYISFCGLRTHAELEGNLVTELIYVHSKLLIADDNTVIIGSANINDRSMLGKRDSEMAVIVQDTETVPSVMDGKEYQAGRFARGLRLQCFRVVLGYLDDPSEDIQDPVSDKFFKEVWVSTAARNATIYDKVFRCLPNDEVHNLIQLRDFINKPVLAKEDPIRAEEELKKIRGFLVQFPFYFLSEESLLPSVGTKEAIVPMEVWT [PLD1]
- solubility in G1/S (log2) (HeLa Kyoto [1]): -0.336
- melting temperature (HeLa Kyoto [2]; cell cycle stage: G1/S): 51.6 °C
- melting temperature (HeLa Kyoto [2]; cell cycle stage: mitosis): 51.7 °C
- solubility change mitosis (log2) (HeLa Kyoto [3]): -0.0809
- thermal stability score (HeLa Kyoto [4]; [5]): -0.632
- thermal stability score (HeLa Kyoto [4]; cell cycle stage: mitosis): -0.457

Sequence: MSLLFSRCNSIVTVKKNKRHMAEVNASPLKHFVTAKKKINGIFEQLGAYIQESATFLEDTYRNAELDPVTTEEQVLDVKGYLSKVRGISEVLARRHMKVAFFGRTSNGKSTVINAMLWDKVLPSGIGHTTNCFLRVEGTDGHEAFLLTEGSEEKRSAKTVNQLAHALHQDKQLHAGSLVSVMWPNSKCPLLKDDLVLMDSPGIDVTTELDSWIDKFCLDADVFVLVANSESTLMQTEKHFFHKVSERLSRPNIFILNNRWDASASEPEYMEEVRRQHMERCTSFLVDELGVVDRSQAGDRIFFVSAKEVLNARIQKAQGMPEGGGALAEGFQVRMFEFQNFERRFEECISQSAVKTKFEQHTVRAKQIAEAVRLIMDSLHMAAREQQVYCEEMREERQDRLKFIDKQLELLAQDYKLRIKQITEEVERQVSTAMAEEIRRLSVLVDDYQMDFHPSPVVLKVYKNELHRHIEEGLGRNMSDRCSTAITNSLQTMQQDMIDGLKPLLPVSVRSQIDMLVPRQCFSLNYDLNCDKLCADFQEDIEFHFSLGWTMLVNRFLGPKNSRRALMGYNDQVQRPIPLTPANPSMPPLPQGSLTQEEFMVSMVTGLASLTSRTSMGILVVGGVVWKAVGWRLIALSFGLYGLLYVYERLTWTTKAKERAFKRQFVEHASEKLQLVISYTGSNCSHQVQQELSGTFAHLCQQVDVTRENLEQEIAAMNKKIEVLDSLQSKAKLLRNKAGWLDSELNMFTHQYLQPSR [MFN2]
- solubility in G1/S (log2) (HeLa Kyoto [1]): -0.174
- melting temperature (HeLa Kyoto [2]; cell cycle stage: G1/S): 50.8 °C
- melting temperature (HeLa Kyoto [2]; cell cycle stage: mitosis): 51.3 °C
- solubility change mitosis (log2) (HeLa Kyoto [3]): -0.043
- thermal stability score (HeLa Kyoto [4]; [5]): 1.32
- thermal stability score (HeLa Kyoto [4]; cell cycle stage: mitosis): 0.83
